Assay results taken from US20130171069A1.
Ends that are not written are not given here.

Target: synthetic amylospheroid (synthetic ASPD) (UniProt P05067)
Assay: SPR; biotinylated peptide on the chip, ASPD as ligand

Kd [nM] | kon [M⁻¹ s⁻¹] | Binder
88.5 | – | HLNWLSWFPSRH-biotin [C-terminal biotinylated AAT03 …]
82.4 | – | HLNWWHSWYPAR-biotin [C-terminal biotinylated AAT02 …]
57.7 | 7640 | HFNWYNLWRVQY-biotin [C-terminal biotinylated AAT01 …]
